Drawing on publication PMC12310515 (2025), this text covers Kd for four molecules.

To fix the notation:
B1: LILRB1 (receptor)
chain: GHLPKPTLWAEPGSVITQGSPVTLRCQGGQETQEYRLYREKKTALWITRIPQELVKKGQFPIPSITWEHAGRYRCYYGSDTAGRSESSDPLELVVTGAYIKPTLSAQPSPVVNSGGNVILQCDSQVAFDGFSLCKEGEDEHPQCLNSQPHARGSSRAIFSVGPVSPSRRWWYRCYAYDSNSPYEWSLPSDLLELLVLGVSKKPSLSVQPGPIVAPEETLTLQCGSDAGYNRFVLYKDGERDFLQLAGAQPQAGLSQANFTLGPVSRSYGGQYRCYGAHNLSSEWSAPSDPLDILIAGQFYDRVSLSVQPGPTVASGENVTLLCQSQGWMQTFLLTKEGAADDPWRLRSTYQSQKYQAEFPMGPVTSAHAGTYRCYGSQSSKPYLLTHPSDPLELVVSGPSGGPSSPTTGPTSTSGPEDQPLTPTGSDPQSGLGRHLGVVIGILVAVILLLLLLLLLFLILRHRRQGKHWTSTQRKADFQHPAGAVGPEPTDRGLQWRSSPAADAQEENLYAAVKHTQPEDGVEMDTRSPHDEDPQAVTYAEVKHSRPRREMASPPSPLSGEFLDTKDRQAEEDRQMDTEAAASEAPQDVTYAQLHSLTLRREATEPPPSQEGPSPAVPSIYATLAIH
B2: KIR2DS1 (SPR protein) (receptor)
chain: HEGVHRKPSLLAHPGRLVKSEETVILQCWSDVMFEHFLLHREGMFNDTLRLIGEHHDGVSKANFSISRMKQDLAGTYRCYGSVTHSPYQLSAPSDPLDIVIIGLYEKPSLSAQPGPTVLAGENVTLSCSSRSSYDMYHLSREGEAHERRLPAGTKVNGTFQANFPLGPATHGGTYRCFGSFRDSPYEWSKSSDPLLVSVTGNPSNSWPSPTEPSSETGNPRHLH
B3: KIR2DL1 (residues 27-221) (domain or fragment)
chain: RKPSLLAHPGRLVKSEETVILQCWSDVMFEHFLLHREGMFNDTLRLIGEHHDGVSKANFSISRMTQDLAGTYRCYGSVTHSPYQVSAPSDPLDIVIIGLYEKPSLSAQLGPTVLAGENVTLSCSSRSSYDMYHLSREGEAHERRLPAGPKVNGTFQADFPLGPATHGGTYRCFGSFHDSPYEWSKSSDPLLVSVT
modifications: N-linked glycan on N67 (N-acetylglucosamine-fucose core seen in the structures)
B4: KEN-01 (mFc-tagged, SPR) (natural protein)
chain: AKGAAAAEAARIPAAIDAVIKGIVTKFGVSTESVQGLKSLFTANTYNDVTKIARAINEQYNPSSCLTGGSGADNSICPWAMENFFAARKIPGFIQREAVSMNDVIEKTVKTIVSDAPKTAETAAKKATEG

Common to all, as to test: SPR
A general note: SPR reads the build-up and loss of mass on a sensor chip optically.

Experiment [1] concerns the target one of the six Kenyan RIFINs (pfKE01) that bound to LILRB1.
The target of experiment [2] is T1, SEN-08 (P. falciparum pfSN01).
The target of experiment [3] is T2, SEN-12 (P. falciparum pfSN01).
Experiment [4] has as its target T1, SEN-08. The source holds these as a separate data set.
Experiment [5] has as its target T3, KEN-06 (P. falciparum pfKE01).
Experiment [6] addresses T4, SEN-01 (P. falciparum pfSN01).
Experiment [7] has as its target T5, KEN-04 (P. falciparum pfKE01).
Experiment [8] deals with T6, KEN-02 (P. falciparum pfKE01).
In experiment [9] the target is T2, SEN-12. This is another data set of the same source.
The target in experiment [10] is T3, KEN-06. The source holds these as a separate data set.
In experiment [11] the target is T4, SEN-01. The source holds these as a separate data set.
Experiment [12] addresses T5, KEN-04. The source holds these as a separate data set.
Experiment [13] concerns the target T6, KEN-02. This is another data set of the same source.
In experiment [14] the target is B3.
The experiment “KIR2DS1 (SPR protein)” concerns the target B2.

Like-named read-outs stand apart in the source and are kept apart here.

With B1, the Kd in experiment [1] stood at 2.6 µM; with SEN-08 [2], 5.5 µM.

As to B2, the dissociation constant Kd with SEN-12 [3] was found to be 0.5 µM; in the experiment with SEN-08 [4], 2.1 µM; with KEN-06 [5], 0.9 µM; with SEN-01 [6], 1.1 µM; in the experiment with KEN-04 [7], 5.4 µM; with KEN-02 [8], 2.6 µM.

As to B3, the Kd was found to be 0.4 µM in the experiment with SEN-12 [9]; 3.5 µM with SEN-08 [2]; 0.4 µM with KEN-06 [10]; 3.4 µM with SEN-01 [11]; 2 µM in the experiment with KEN-04 [12]; 2.2 µM in the experiment with KEN-02 [13].

As to B4, the Kd in [14] worked out at 0.1 µM; in the experiment with KIR2DS1 (SPR protein), 0.3 µM.

Broadly, the Kd is the free concentration of one partner at which half of the binding sites on the other are occupied at equilibrium, for simple one-to-one binding. High values mean weaker binding, low ones tighter binding.
